In the supplement of paper PMC9170038:

Test system: K4 kissing-loop RNA reporter
Assay: apparent KD of K4 kissing-loop reporter; higher = weaker reporter binding
Conditions: Eterna round: R107; input ligand: FMN 200 uM
Method: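 RNA-MaP round R107: designed RNA switches with theophylline, tryptophan, arginine or FMN aptamers are transcribed on-chip within common flanks. They are titrated with a labelled K4 kissing-loop RNA reporter in RNA-MaP buffer (100 mM Tris pH 7.5, 80 mM KCl, 4 mM MgCl2), without ligand or with the indicated ligand. Median apparent KD per design.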
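Also: bound reporter read as fluorescence of individual clusters on recovered sequencing chips by microscopy, with normalized cluster intensities fitted with a binding model.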

Sequence | apparent KD of K4 kissing-loop reporter
AUGGUUGUCGUAGGAUAUGUAGGUAAUUCCUAUAGCAGUGAUGUUGCUAAUAUCUUGGAAGAAGGAACAGAAGGACGAUAACCAC [KL-SSFMN-B1 #analogue] | 123 nM
AGGCCACACAGCGAGUGAUGUUUGCGUUAUCGAGGACCGGUACGGCCGCCACUCGGCCUUUAGCGCCUUACCAAUUAGGUGUUGC [theeternabot_sameState_KL_Trp_A_46] | 453 nM
UAUAUACAUUUAUUAAUUAAAGGUUCAGAAGGAGCGUGAAUUAACACAGGUAGGUCGCUGAGCGAGUGAUGUUCGCUAUAUGGAA [JR_ExcArginiA_Sub006] | 54.1 nM
UCGGUAUAGUGAUGUUAUAUAGAGAGUGAUACCAGUUUAGAGAGAAACCCUUGGCAGCAUAGAAGAGUAUCAUUGGAGGAGGAGG [#20 K4 Theophylline A Exclusion] | 455 nM
UGAUACCAGACGGCCGCCACUGGUGCAUGUCAAAGACAUGCUAACCAAAUCGUGGAGUGAUGUUCCAGGACCGGGUCUGGUAUCU [TrypBX 22 #SwitchBubble #Palindromic #StaticStem] | 235 nM
AAUGUACAGGGAAGGAGCGCCGUCCAGUGAUGUUGGAGUUAAAUACCAGUGAUGUUGGUUAGGCAGGUAGGUCGCCCUAUAGUAU [#07 K4 Arginine B Exclusion] | 126 nM
AGUAGUUGGACGGCCGCCACUAGAACGGCUUUGCCAAAGGCAGAGCACUAGAGUGAUGUUCUAGCUAGGACCGGGUCCAACUACA [Omei KL Tryp B SS A v3] | 662 nM
UGGGAUGUUAAAGGAUAUAGCAAGUGAUAUAAGAAAGUGAGUGAUGUUUAUGUAGGUGAUGAUAUGUUAGAAGGUUAACAAAACG [abcdefgh] | 296 nM
UAUAUAGUGACGGCCGCCACUAUAUUAAUGUUUUUGUUAGAGUGAUGUUUUGUUUAAUAUUUUUAUAGGACCGGGUUAUAUGUUA [zsqqxmullin] | 569 nM
GGUAGCAUGGCGGCCGCCACUAACAACCUCACCUGCGGCUCGAUCGAGUGAUGUUCGAACGCAAUUAGGACCGGGCCAUGCUACC | 243 nM
UGGAGUUGACGAAAAGUCAACUCCUGAGAUACCAGUGACGAAAGUCACCCUUGGCAGCUCACUGGCAGUGAUGUUGCAAAAUAAA [KL-SSTheo-A4] | 135 nM
AUGCGCGUGCGAUGAAAAUCGCACGCGCAUCGAGGACCGGUACGGCCGCCACUCGCUCGCGCCGAGUGAUGUUCGGCCGGCGAAC [#2 Same State - Tryptophan A Attempt #4 (HarryS)] | 278 nM
AUAGGAGUGAUGUUCCUUAGUUUCUCCGAUACCAGUAUGGAAACAUACCCUUGGCAGCGGGAAACCGCUGAUUAGGAAACUAGUC [Theophylline A K4 7] | 256 nM
GGCAGUGAUGUUGCCAGUGGCAGAUGCGAAGGAGCGCGGUGAGACGCAGGUAGGUCGCGCAUUGAAAUUGCUGUCACUAAAAUGC [#1] | 261 nM
AAUUUACAAUAAUCAUUUAAAGGAUCAGAAGGAGCGUGAAAUAACACAGGUAGGUCGCUGAGCGAGUGAUGUUCGCUAUAUACAA [JR_ExcArginiA_Sub001] | 52.3 nM
GCCGUACGCAUGGAUACCAGUCUAAGAGUGAUGUUCUUACCGAUUGCGCCUGGAUCAUUAGACCCUUGGCAGCCAUGCGUACGGC | 155 nM
GAUCUGAACGAAAGUUCGGAUCAUUCCGAUACCAGUAUGGAUUCAUACCCUUGGCAGCGGGAUUCUGCUAUGGAGUGAUGUUCCA [Theophylline A K4 15] | 422 nM
GGGAGUAGUGCGGCCGCCACUGAGAAAGAAGAAGAAUGUAGUGAUGUUAUGUAGGAAAGGAAGAACAGGACCGGGCAUUAGAUUU [SSTRyptB.H] | 478 nM
CGCAGUGAUGUUGCGAAUAUAAUAACGGAAGGAGCGCGUGAAAACGCAGGUAGGUCGCCGAUUGGUAUGAUGGAAACAUCGUACC [Arginine A K4 9] | 154 nM
AAAUCUUUCAGAAGGAGCGUGGAUUAUUCAUAUAUAUUUAUUACGAGUGAUGUUCGUAAUUCACAGGUAGGUCGCUGUUCAAUAA [JR_ExcArginiB_Sub005] | 117 nM
UAAGAGUCUCUGCAAUUAGCAGAGACUCAACGAGGACCGGUACGGCCGCCACUCGGGUCCUAGAGUGAUGUUCUAAUAAUAUAAU [AK1.1 SS Tryptophan A] | 273 nM
UGAUAAAGCAGUGAUGUUGCAAGUAAUGAUACCAGUUAAGAAGAGAACCCUUGGCAGCAUAAAGUGCGCUCUGAUGAGUGUGCUU [whbob_SS_Theo_A_w52] | 96.7 nM
UGAUACCAGACGGCCGCCACUCCUGCAAGUCAAAGACUUGCUAAAAGGAUCGUCCAGUGAUGUUGGAGGACCGGGUCUGGUAUCU [TrypBX 19 #SwitchBubble #Palindromic #StaticStem] | 795 nM
GCUCAGGAGUGAUGUUCCUAGUGAUGUUAACGAGGACCGGUACGGCCGCCACUCGAUACGGCCGGACCGUAGGAUAAACUAGAGC [Same State - Tryptophan A (Freestyle 10)] | 292 nM
UCUCGGGCCAGUGAUGUUGGCGGCUAGUGGCGAGGACCGGUACGGCCGCCACUCGGCGCAGCAGCGGAGUGAUGUUUCGUGAGUA [Same State Tryptophan A GF 17] | 363 nM
AAACGUUGGUGCGAUACCAGCUUGAUCGGUAAACGAUCUACUGGAGUGAUGUUCCUAAAUAGCCCUUGGCAGCGCACCGACGAAA [MAT - Same State Theophlline B - Mod of Eli - D8] | 181 nM
